# Assay results: patent publication US20250042956A1 (University of California, published 2025)
# B1: TRBIP2 (bait of the TRBIP2 IP-MS) (other, not shown: small tags and cut ends)
# chain: MATNACLESDSLLPPRKRLLAGFKNQNSRISNESPSPPFASSSSSTTTSNGSSASAVVHTHHLDHLLNDQTRSPEELAQASKATAALAVKVAKAARATANEKAIIASKAVAAAKNALELFASFPAAETVSCKEPRLIRAINNSPRVLTDCSGHRNKKQKTLTSTMNDGNDVAGVVDSDDGTRVNGKLLLCDNTLKEKTEEESSSLGKRRGRVKLPLSMCAYKDQENGITLEENNLSVSKSEGYNGGVAQVIERPSWKCQDLKSPECVKQNKVVRS
# notes: tag and its position not described; also called TRBIP2-1; TRBIP2-2
# Legend:
# Assay in all cases: IP-MS rep 2
# AT5G67580.1 TRB2 = target: T1, AT5G67580.1 TRB2 (Arabidopsis thaliana, UniProt Q9FJW5 1-299)
# T1 construct: Endogenous protein found by mass spectrometry
# T1 sequence: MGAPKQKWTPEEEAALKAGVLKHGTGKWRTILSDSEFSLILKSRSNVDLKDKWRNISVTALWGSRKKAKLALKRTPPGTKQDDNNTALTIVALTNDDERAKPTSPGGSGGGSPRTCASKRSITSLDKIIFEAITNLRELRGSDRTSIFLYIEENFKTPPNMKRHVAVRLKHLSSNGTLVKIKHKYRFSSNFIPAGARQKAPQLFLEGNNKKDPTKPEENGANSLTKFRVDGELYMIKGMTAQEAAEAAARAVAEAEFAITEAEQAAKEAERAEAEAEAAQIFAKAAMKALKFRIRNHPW
# Summary of the method: (§1)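 Peptide counts for co-purified proteins come from mass spectrometry of proteins pulled down from Arabidopsis floral buds with anti-FLAG magnetic beads. Ten grams of unopened buds from wild-type and FLAG-tagged transgenic lines were ground in liquid nitrogen and homogenised in 25 mL IP buffer. Lysates were held with 250 μL anti-FLAG M2 magnetic beads at 4° C for 2 hours, and bound proteins were eluted in TBS with 250 μg/mL 3×FLAG peptides.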
# AT4G35510.1 TRBIP1 = target: T2, AT4G35510.1 TRBIP1 (Arabidopsis thaliana)
# T2 construct: Endogenous protein found by mass spectrometry
# T2 chain: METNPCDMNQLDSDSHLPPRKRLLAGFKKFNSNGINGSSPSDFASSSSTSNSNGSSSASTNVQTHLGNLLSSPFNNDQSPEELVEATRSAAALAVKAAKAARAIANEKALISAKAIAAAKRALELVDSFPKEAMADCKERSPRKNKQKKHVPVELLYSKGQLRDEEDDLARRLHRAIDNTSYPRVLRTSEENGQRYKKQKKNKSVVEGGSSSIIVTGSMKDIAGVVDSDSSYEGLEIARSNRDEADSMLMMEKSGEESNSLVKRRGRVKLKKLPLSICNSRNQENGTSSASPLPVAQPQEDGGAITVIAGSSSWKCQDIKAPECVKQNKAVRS
# Summary of the method: as §1
# AT5G08450.1 HDC1 = target: T3, AT5G08450.1 HDC1 (Arabidopsis thaliana)
# T3 construct: Endogenous protein found by mass spectrometry
# Summary of the method: as §1
# AT3G49850.1 TRB3 = target: T4, AT3G49850.1 TRB3 (Arabidopsis thaliana, UniProt Q9M2X3 1-295)
# T4 construct: Endogenous protein found by mass spectrometry
# T4 sequence: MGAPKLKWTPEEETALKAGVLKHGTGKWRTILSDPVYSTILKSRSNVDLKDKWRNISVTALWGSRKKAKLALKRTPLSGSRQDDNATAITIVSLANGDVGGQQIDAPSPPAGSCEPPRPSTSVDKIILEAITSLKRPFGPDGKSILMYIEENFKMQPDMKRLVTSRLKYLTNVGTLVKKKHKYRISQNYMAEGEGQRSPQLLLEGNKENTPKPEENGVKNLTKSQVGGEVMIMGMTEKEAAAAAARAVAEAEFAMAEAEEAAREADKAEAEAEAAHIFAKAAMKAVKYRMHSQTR
# Summary of the method: as §1
# AT1G49950.3 TRB1 = target: T5, AT1G49950.3 TRB1 (Arabidopsis thaliana, UniProt Q8VWK4 1-300, limits assumed)
# T5 construct: Endogenous protein found by mass spectrometry
# T5 sequence: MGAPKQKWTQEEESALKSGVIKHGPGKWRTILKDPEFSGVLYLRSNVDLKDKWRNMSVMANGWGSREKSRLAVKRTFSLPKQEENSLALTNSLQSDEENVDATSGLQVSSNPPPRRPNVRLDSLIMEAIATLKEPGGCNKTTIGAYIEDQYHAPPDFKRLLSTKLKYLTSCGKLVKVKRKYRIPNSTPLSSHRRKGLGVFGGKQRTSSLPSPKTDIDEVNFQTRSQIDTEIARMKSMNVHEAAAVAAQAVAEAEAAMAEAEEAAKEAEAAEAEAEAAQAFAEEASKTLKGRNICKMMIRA
# Summary of the method: as §1
# AT5G51230.1 EMF2 = target: T6, AT5G51230.1 EMF2 (Arabidopsis thaliana, UniProt Q8L6Y4 1-631)
# T6 construct: Endogenous protein found by mass spectrometry; also called EMBRYONIC FLOWER 2
# T6 sequence (looked up): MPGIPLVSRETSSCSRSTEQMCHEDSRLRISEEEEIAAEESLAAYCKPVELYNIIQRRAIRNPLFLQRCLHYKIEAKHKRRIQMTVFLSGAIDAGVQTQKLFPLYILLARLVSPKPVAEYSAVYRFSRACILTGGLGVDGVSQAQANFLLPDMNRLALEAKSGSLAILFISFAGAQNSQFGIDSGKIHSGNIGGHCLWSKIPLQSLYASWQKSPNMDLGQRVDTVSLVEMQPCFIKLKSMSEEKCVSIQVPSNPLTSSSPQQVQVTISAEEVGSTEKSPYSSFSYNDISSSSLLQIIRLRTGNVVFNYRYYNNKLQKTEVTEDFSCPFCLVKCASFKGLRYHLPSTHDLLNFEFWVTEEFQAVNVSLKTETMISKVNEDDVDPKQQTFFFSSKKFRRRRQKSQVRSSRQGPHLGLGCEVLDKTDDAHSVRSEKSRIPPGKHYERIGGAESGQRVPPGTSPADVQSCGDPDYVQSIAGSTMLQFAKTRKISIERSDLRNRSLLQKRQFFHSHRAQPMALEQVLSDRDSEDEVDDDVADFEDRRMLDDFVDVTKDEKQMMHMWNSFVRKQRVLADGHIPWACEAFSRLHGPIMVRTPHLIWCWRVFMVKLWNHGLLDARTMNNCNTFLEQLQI
# Summary of the method: as §1
# AT3G10480.3 NAC050 = target: T7, AT3G10480.3 NAC050 (Arabidopsis thaliana, UniProt Q9SQX9 1-447, limits assumed)
# T7 construct: Endogenous protein found by mass spectrometry
# T7 sequence (looked up): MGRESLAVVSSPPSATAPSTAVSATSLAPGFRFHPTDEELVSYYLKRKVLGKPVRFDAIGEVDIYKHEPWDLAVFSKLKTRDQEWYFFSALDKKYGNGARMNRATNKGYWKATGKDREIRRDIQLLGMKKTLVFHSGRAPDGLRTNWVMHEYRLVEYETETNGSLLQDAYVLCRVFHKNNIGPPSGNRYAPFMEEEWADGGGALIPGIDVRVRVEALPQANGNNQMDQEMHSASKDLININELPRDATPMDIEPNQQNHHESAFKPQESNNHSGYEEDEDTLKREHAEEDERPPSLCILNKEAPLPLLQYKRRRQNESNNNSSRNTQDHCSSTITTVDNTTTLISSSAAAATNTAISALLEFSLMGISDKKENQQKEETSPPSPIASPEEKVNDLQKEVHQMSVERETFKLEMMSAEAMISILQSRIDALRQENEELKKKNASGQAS
# Summary of the method: as §1
binder,measurement,setting,value
B1,IP-MS count,AT5G67580.1 TRB2,3
same,IP-MS count,AT4G35510.1 TRBIP1,0
same,IP-MS count,AT5G08450.1 HDC1,0
same,IP-MS count,AT3G49850.1 TRB3,6
same,IP-MS count,AT1G49950.3 TRB1,5
same,IP-MS count,AT5G51230.1 EMF2,0
same,IP-MS count,AT3G10480.3 NAC050,0
